Reference: US20190284266A1
pIC50: −log10 of the molar value. Blank lines part the entries; values can stand above or below the substance they belong to.

Assays:
[1] = biological target: hyperphosphorylated human tau P301L (0N4R) of rTg4510 mice, 64 kDa and 70 kDa species (human) (UniProt P10636); test: binding of pathological versus non-pathological tau, brain material (Table 5)
[2] = biological target: tau phosphorylated at Serine 422 in Alzheimer's disease brain extract (human) (UniProt P10636); test: immunodepletion of AD brain extract with antibody-coated beads, P-S422 western blot
[3] = biological target: total tau of Alzheimer's disease brain extract (human) (UniProt P10636); test: immunodepletion of AD brain extract with antibody on Protein G magnetic beads; remaining total tau by Tau5 western blot, normalised to gapdh
[4] = biological target: total tau of Alzheimer's disease brain extract (human) (UniProt P10636); test: immunodepletion of AD brain extract with antibody-coated beads, Tau5 western blot
[5] = biological target: tau phosphorylated at Serine 199/202 in Alzheimer's disease brain extract (human) (UniProt P10636); test: immunodepletion of AD brain extract with 5 µg antibody on beads, P-S199/202 western blot
[6] = biological target: hyperphosphorylated (pathological) tau from human Alzheimer's disease brain, phosphorylated at serine 396 (human) (UniProt P10636); test: binding of pathological versus non-pathological tau, brain material (Table 5)
[7] = biological target: hyperphosphorylated (pathological) tau from human Alzheimer's disease brain, phosphorylated at serine 396 (human) (UniProt P10636); test: immunodepletion of AD brain extract with antibody-coated beads, pS396 western blot
[8] = biological target: hyperphosphorylated (pathological) tau from human Alzheimer's disease brain, phosphorylated at serine 396 (human) (UniProt P10636); test: MSD fluid phase inhibition: antibody pre-incubated with AD-P3, capture on coated mouse C10-2 (competitor); two-site fit, low affinity part (predominant); two-site fit, low affinity part (predominant)
[9] = biological target: hyperphosphorylated (pathological) tau from human Alzheimer's disease brain, phosphorylated at serine 396 (human) (UniProt P10636); test: MSD fluid phase inhibition of Ptau antigen capture on C10-2 coated plate (competitor C10-2); lower end of the printed range 10-20 nM
[10] = biological target: hyperphosphorylated (pathological) tau from human Alzheimer's disease brain, phosphorylated at serine 396 (human) (UniProt P10636); test: MSD fluid phase inhibition: antibody pre-incubated with AD-P3, capture on coated mouse C10-2 (competitor); two-site fit, high affinity part; two-site fit, high affinity part (less than 25% of total binding)
[11] = biological target: hyperphosphorylated (pathological) tau from human Alzheimer's disease brain, phosphorylated at serine 396 (human) (UniProt P10636); test: immunodepletion of AD brain extract with antibody on Protein G magnetic beads; remaining P-S396 tau by western blot, normalised to gapdh
[12] = biological target: hyperphosphorylated (pathological) tau from human Alzheimer's disease brain, phosphorylated at serine 396 (human) (UniProt P10636); test: immunodepletion of AD brain extract, pS396 western blot, 75 ng antibody
[13] = biological target: hyperphosphorylated human tau P301L (0N4R) of rTg4510 mice, 64 kDa and 70 kDa species (human) (UniProt P10636); test: cell-based or functional assay
[14] = biological target: tau phosphorylated at Serine 199/202 in Alzheimer's disease brain extract (human) (UniProt P10636); test: immunodepletion of AD brain extract with antibody-coated beads, P-S199/202 western blot
[15] = biological target: hyperphosphorylated (pathological) tau from human Alzheimer's disease brain, phosphorylated at serine 396 (human) (UniProt P10636); test: MSD fluid phase inhibition of AD-P3 capture, two-site fit
[16] = biological target: hyperphosphorylated (pathological) tau from human Alzheimer's disease brain, phosphorylated at serine 396 (human) (UniProt P10636); test: MSD fluid phase inhibition of Ptau antigen capture on C10-2 coated plate (competitor C10-2); upper end of the printed range 10-20 nM
[17] = biological target: hyperphosphorylated (pathological) tau from human Alzheimer's disease brain, phosphorylated at serine 396 (human) (UniProt P10636); test: MSD fluid phase inhibition of Ptau antigen capture on C10-2 coated plate (competitor C10-2)
Antibody N32S, A101T = test: MSD peptide inhibition: 1 ng/ml antibody pre-incubated with graded Ptau 386-408 (pS396), then wells coated with Ptau 386-408 (pS396/pS404) (competitor)
Antibody N32S = test: as above

Substance: Anti-Tau Therapeutic Antibody NI-105-4E4
TG/wt (ratio of binding to transgenic over wild type mouse brain tau) [1]: 1 fold

Substance: Antibody C10-2 (humanized C10-2)
pIC50 [8]: 6.20
amount of antibody required to remove 50% of the pS422 tau [2]: 0.27 µg
percent of pS422 tau removed [2]: > 90%
pIC50 [9]: < 8.00
pIC50 [10]: 7.85
EC50 (read off the curve) [11]: 0.2 µg
percent decrease in the pS396 signal at 75 ng antibody [12]: < 6%
decrease in aggregated tau in HEK293 cells expressing hTau-P301L seeded with Tg4510 homogenate pre-incubated with antibody (Cisbio tau aggregation assay) [13]: 40%
reduction of P3 and S1p induced tau seeding in rTg4510 cortical neurons (Cisbio tau aggregation assay) [13]: 23%
amount of antibody for 50% of the effect [14]: 0.34 µg
percent of pS199/202 tau removed [14]: 69%
share of high affinity binding in the total binding [15]: < 25%
AD/ctrl (ratio of binding to AD brain tau over control brain tau) [6]: > 100 fold
TG/wt (ratio of binding to transgenic over wild type mouse brain tau) [1]: 118 fold
pIC50 [16]: > 7.70
amount of antibody for half of the max effect [7]: 0.3 µg
max effect, percent of pS396 tau removed [7]: 88%

Substance: PHF-13 (antibody)
pIC50 [17]: 6.00 to 6.30

More lines, now with the values ahead:

amount of antibody required to remove 50% of the pS422 tau [2]: 0.42 µg
percent of pS422 tau removed [2]: > 90%
EC50 (read off the curve) [3]: 0.3 µg
percent of total tau removed [4]: < 24%
max percent reduction of pS199/202 tau [5]: 52%
AD/ctrl (ratio of binding to AD brain tau over control brain tau) [6]: 5 fold
TG/wt (ratio of binding to transgenic over wild type mouse brain tau) [1]: 2 fold
amount of antibody for half of the max effect [7]: 0.63 µg
max effect, percent of pS396 tau removed [7]: 60%
percent of pS396 tau removed [7]: 55%
Substance: 2.10.3 antibody

TG/wt (ratio of binding to transgenic over wild type mouse brain tau) [1]: 51 fold
Substance: HJ8.5 (antibody)

TG/wt (ratio of binding to transgenic over wild type mouse brain tau) [1]: 37 fold
Substance: IPN002 (antibody)

pIC50 (Antibody N32S, A101T): 7.47
pIC50 (Antibody N32S): 7.30
Substance: Ptau 386-408 (pS396) peptide
